Data taken from patent US20240124607A1 (Merck Sharp & Dohme, published 2024).
Substitutions are numbered along the chain they refer to.

How the values were obtained:
[1] = molecular target: human CD16A (FcγRIIIA) F158 (human, UniProt P08637 17-208, limits assumed, biotinylated); experiment: SPR, biotin-CD16A on SA chip, 25C, pH 7.4
Protocol: (§1) Binding to human and cynomolgus CD16A was assessed using biotinylated CD16A captured on a streptavidin (SA) sensor chip (Cytiva, #BR100531). AB0411, AB0466, or AB0621 was titrated from 1500 nM at 25° C. at 30 μL/min for 150 sec association followed by 300 sec dissociation. The surface of the chip was regenerated with 2 mM sodium hydroxide for 5 sec at 30 μL/min. Running buffer was HBS-EP+. […] The V158 isoform bound ˜2- to 3-fold tighter than the F158 isoform as expected.

[2] = molecular target: T1, human CD16A (FcγRIIIA) V158 (human, UniProt P08637 17-208, limits assumed, biotinylated in the assay of Table 21); experiment: SPR, biotin-CD16A on SA chip, 25C, pH 7.4
T1 construct: also called CD16A (V158/V176)
Protocol: as §1

Cyno FcγRIIIA = molecular target: T2, Cyno FcγRIIIA (cynomolgus monkey, UniProt Q8SPW2 17-208, limits assumed, biotinylated); experiment: SPR, biotin-CD16A on SA chip, 25C, pH 7.4
T2 construct: also called cynomolgus CD16A
Protocol: as §1

Human CEACAM5 (E398) = molecular target: T3, Human CEACAM5 (E398) (human, UniProt P06731 35-685, limits assumed); experiment: SPR, anti-hFc capture, 37C, pH 7.4
T3 construct: also called hCEACAM5
T3 sequence: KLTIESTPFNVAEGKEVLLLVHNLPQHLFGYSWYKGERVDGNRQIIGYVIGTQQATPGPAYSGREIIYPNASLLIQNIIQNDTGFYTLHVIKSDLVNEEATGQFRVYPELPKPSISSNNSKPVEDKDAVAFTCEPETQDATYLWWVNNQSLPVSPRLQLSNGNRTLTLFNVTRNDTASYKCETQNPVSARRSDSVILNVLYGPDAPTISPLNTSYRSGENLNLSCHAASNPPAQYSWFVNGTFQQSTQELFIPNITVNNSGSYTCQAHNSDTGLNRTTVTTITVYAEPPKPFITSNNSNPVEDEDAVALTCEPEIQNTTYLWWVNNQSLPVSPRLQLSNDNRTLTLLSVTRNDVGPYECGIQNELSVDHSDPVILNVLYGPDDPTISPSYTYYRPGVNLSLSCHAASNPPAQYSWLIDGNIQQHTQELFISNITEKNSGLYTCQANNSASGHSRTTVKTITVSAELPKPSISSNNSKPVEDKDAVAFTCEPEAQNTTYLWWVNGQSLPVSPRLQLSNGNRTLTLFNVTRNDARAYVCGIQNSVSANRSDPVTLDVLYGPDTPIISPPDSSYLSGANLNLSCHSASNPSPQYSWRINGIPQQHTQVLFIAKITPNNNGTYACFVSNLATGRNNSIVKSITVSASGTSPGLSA
Protocol: To determine the affinity and cross-reactivity of CEACAM5 TriNKET molecules, AB0411, AB0466, or AB0621 TriNKETs were captured using an anti-human Fc capture antibody (Cytiva, #BR100839) immobilized onto a Biacore CM5 standard surface sensor chip following manufacturer instructions. Human or cynomolgus CEACAM5 were titrated over captured AB0411, AB0466, and AB0621 as 2-fold serial dilutions starting from 300 nM. Association was monitored for 300 sec and dissociation was monitored for 600 sec. The assay was run at 37° C. at pH 7.4 and 6.0. The surface of the CM5 chip was regenerated with 10 mM glycine pH 1.5 for 20 sec at 100 μL/min.

CEACAM5 N-A1-B1-His = molecular target: T4, CEACAM5 N-A1-B1-His (human, UniProt P06731 35-322, limits assumed); experiment: SPR, Fab capt, 25C
T4 sequence: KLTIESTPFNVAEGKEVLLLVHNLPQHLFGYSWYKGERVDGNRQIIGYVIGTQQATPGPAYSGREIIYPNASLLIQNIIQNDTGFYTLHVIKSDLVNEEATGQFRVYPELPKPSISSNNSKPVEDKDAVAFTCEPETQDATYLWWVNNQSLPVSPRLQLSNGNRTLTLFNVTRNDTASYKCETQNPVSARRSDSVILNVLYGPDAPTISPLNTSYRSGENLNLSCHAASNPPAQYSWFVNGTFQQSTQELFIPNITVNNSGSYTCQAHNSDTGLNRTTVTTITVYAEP
Protocol: If the protein domain was an Fc fusion, AB0411, AB0466, AB0264, or AB0621 were captured using an anti-human Fab antibody (Cytiva, #28958325) immobilized onto a CM5 chip. The various hCEACAM5 protein domains (N-term, A1-B1, A2, B2, A3, or B3) were titrated over the captured TriNKETs at 50 μL/min for 180 sec of association and 300 sec of dissociation. The assay was run at 25° C. in HBS-EP+ running buffer, pH 7.4. The surface of the CM5 chip was regenerated using […] glycine pH 2.1.

[3] = molecular target: T5, human CEACAM6 on Ba/F3 cells (human, UniProt P40199 35-320); experiment: flow cytometry on Ba/F3 cells expressing human CEACAM6, fold over background (FOB), 5-fold dilutions from 1600 nM
T5 construct: whole, on cells
T5 sequence (looked up): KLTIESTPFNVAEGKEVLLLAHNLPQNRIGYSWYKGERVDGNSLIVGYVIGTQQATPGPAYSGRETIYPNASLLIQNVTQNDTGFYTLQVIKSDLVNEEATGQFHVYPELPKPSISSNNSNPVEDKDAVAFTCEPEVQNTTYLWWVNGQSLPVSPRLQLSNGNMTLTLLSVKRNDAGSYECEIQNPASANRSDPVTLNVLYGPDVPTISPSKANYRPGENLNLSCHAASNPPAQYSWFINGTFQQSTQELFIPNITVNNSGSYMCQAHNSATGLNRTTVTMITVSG
Protocol: To examine the binding specificity of the TriNKETs to CEACAM5 compared to other CEACAM family members, Ba/F3 cells were engineered to express one of human CEACAM1, CEACAM6, CEACAM8, or cynomolgus CEACAM5. CEACAM5 TriNKETs were evaluated by flow cytometry starting at 1600 nM followed by 7 5-fold dilutions.

human CD16A (FcγRIIIA) F158, sequence (P08637 17-208 limits assumed): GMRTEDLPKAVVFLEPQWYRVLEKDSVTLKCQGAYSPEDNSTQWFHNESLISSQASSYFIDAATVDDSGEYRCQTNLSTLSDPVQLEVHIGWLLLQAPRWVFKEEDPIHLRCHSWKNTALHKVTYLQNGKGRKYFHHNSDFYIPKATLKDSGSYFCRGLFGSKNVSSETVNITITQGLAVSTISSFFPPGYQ
T1 sequence (P08637 17-208 F176V limits assumed): as the sequence (P08637 17-208 limits assumed) above, with F160V counted along it
T2 sequence (Q8SPW2 17-208 limits assumed): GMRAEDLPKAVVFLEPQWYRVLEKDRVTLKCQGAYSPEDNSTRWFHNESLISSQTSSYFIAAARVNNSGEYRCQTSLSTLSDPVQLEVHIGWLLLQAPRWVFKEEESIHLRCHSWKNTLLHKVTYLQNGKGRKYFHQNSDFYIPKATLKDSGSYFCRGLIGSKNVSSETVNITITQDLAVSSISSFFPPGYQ

B1: AB0466 F3' CEACAM5 TriNKET (bispecific antibody, human IgG1, kappa)
chain: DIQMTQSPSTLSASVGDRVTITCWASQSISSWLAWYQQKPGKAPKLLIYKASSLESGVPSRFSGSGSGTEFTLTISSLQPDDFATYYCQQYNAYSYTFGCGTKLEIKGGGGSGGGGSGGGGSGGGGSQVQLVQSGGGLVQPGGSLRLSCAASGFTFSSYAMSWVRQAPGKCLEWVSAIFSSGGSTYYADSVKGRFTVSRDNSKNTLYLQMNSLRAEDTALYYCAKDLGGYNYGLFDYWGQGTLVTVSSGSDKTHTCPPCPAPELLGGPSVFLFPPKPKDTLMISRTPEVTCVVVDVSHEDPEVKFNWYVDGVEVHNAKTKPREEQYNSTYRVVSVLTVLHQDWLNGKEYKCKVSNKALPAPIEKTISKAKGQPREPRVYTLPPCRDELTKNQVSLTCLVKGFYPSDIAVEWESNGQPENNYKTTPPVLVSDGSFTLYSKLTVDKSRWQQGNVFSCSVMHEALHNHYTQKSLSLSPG
heavy: EVQLVESGGGLVKPGGSLRLSCAASGFTFSSYSMNWVRQAPGKGLEWVSSISSSSSYIYYADSVKGRFTISRDNAKNSLYLQMNSLRAEDTAVYYCARGAPIGAAAGWFDPWGQGTLVTVSSASTKGPSVFPLAPSSKSTSGGTAALGCLVKDYFPEPVTVSWNSGALTSGVHTFPAVLQSSGLYSLSSVVTVPSSSLGTQTYICNVNHKPSNTKVDKKVEPKSCDKTHTCPPCPAPELLGGPSVFLFPPKPKDTLMISRTPEVTCVVVDVSHEDPEVKFNWYVDGVEVHNAKTKPREEQYNSTYRVVSVLTVLHQDWLNGKEYKCKVSNKALPAPIEKTISKAKGQPREPQVCTLPPSRDELTENQVSLTCLVKGFYPSDIAVEWESNGQPENNYKTTPPVLDSDGSFFLYSWLTVDKSRWQQGNVFSCSVMHEALHNHYTQKSLSLSPG
light: DIQMTQSPSSVSASVGDRVTITCRASQGISSWLAWYQQKPGKAPKLLIYAASSLQSGVPSRFSGSGSGTDFTLTISSLQPEDFATYYCQQGVSFPRTFGGGTKVEIKRTVAAPSVFIFPPSDEQLKSGTASVVCLLNNFYPREAKVQWKVDNALQSGNSQESVTEQDSKDSTYSLSSTLTLSKADYEKHKVYACEVTHQGLSSPVTKSFNRGEC
B1 showed a Kd [1] of 690 nM, a koff [1] of 0.21 s⁻¹ and a kon [1] of 310000 M⁻¹ s⁻¹. For the same binder, the Kd [2] was 260 nM, the koff [2] was 0.078 s⁻¹ and the kon [2] was 300000 M⁻¹ s⁻¹. It also gave a Kd (Cyno FcγRIIIA) of 140 nM, a koff (Cyno FcγRIIIA) of 0.11 s⁻¹ and a kon (Cyno FcγRIIIA) of 790000 M⁻¹ s⁻¹. The Kd (Human CEACAM5 (E398)) was 7.2 nM, the kon (Human CEACAM5 (E398)) was 190000 M⁻¹ s⁻¹ and the Kd (CEACAM5 N-A1-B1-His) was 2.1 nM. The kon (CEACAM5 N-A1-B1-His) was 280000 M⁻¹ s⁻¹ and the binding result [3] was “no binding (tested: 1600 nM)”.

B2: AB0411 F3' CEACAM5 TriNKET (bispecific antibody, human IgG1, kappa)
chain: DIQLTQSPATLSVSPGERATLSCRASQSVSSSYLAWYQQKPGQAPRLLIYGASSRATGIPDRFSGSGSGTDFTLTISRLEPEDFAVYYCQQYNNWPLTFGCGTKVEIKGGGGSGGGGSGGGGSGGGGSQVQLVQSGGGLVQPGGSLRLSCAASGFTFTSYAMSWVRQAPGKCLEWVSAISGTGDSTFYADSVKGRFTFSRDNSKNTLYLQMNSLRAEDTAVYYCAKDLGWLQYGLFDYWGQGTLVTVSSGSDKTHTCPPCPAPELLGGPSVFLFPPKPKDTLMISRTPEVTCVVVDVSHEDPEVKFNWYVDGVEVHNAKTKPREEQYNSTYRVVSVLTVLHQDWLNGKEYKCKVSNKALPAPIEKTISKAKGQPREPRVYTLPPCRDELTKNQVSLTCLVKGFYPSDIAVEWESNGQPENNYKTTPPVLVSDGSFTLYSKLTVDKSRWQQGNVFSCSVMHEALHNHYTQKSLSLSPG
heavy: B1 heavy
light: B1 light
With B2 the Kd [1] was 370 nM, the koff [1] was 0.086 s⁻¹ and the kon [1] was 220000 M⁻¹ s⁻¹. For the same binder, the Kd [2] was 120 nM, the koff [2] was 0.029 s⁻¹ and the kon [2] was 230000 M⁻¹ s⁻¹. It also gave a Kd (Cyno FcγRIIIA) of 100 nM, a koff (Cyno FcγRIIIA) of 0.075 s⁻¹ and a kon (Cyno FcγRIIIA) of 730000 M⁻¹ s⁻¹. For the same binder, the Kd (Human CEACAM5 (E398)) was 1.7 nM, the kon (Human CEACAM5 (E398)) was 270000 M⁻¹ s⁻¹ and the Kd (CEACAM5 N-A1-B1-His) was 0.95 nM. For the same binder, the kon (CEACAM5 N-A1-B1-His) was 300000 M⁻¹ s⁻¹.

B3: AB0621 F3' CEACAM5 TriNKET (bispecific antibody, human IgG1, kappa)
chain: DIVMTQSPDSLAVSLGERATINCKSSHSLLYGNFQNNYLAWYQQKPGQPPKLLIYWASTRESGVPDRFSGSGSGTDFTLTISSLQAEDVAVYYCQQYYSYPYTFGCGTKLEIKGGGGSGGGGSGGGGSGGGGSQVQLVQSGAEVKKPGASVKVSCKASGYTFTAYTIHWVRQAPGQCLEWMGYINPSSGYTEYNQKFKDRTTLTADTSISTAYMELSRLRSDDTAVYYCTREGGLLWFDYWGQGTLVTVSSGSDKTHTCPPCPAPELLGGPSVFLFPPKPKDTLMISRTPEVTCVVVDVSHEDPEVKFNWYVDGVEVHNAKTKPREEQYNSTYRVVSVLTVLHQDWLNGKEYKCKVSNKALPAPIEKTISKAKGQPREPRVYTLPPCRDELTKNQVSLTCLVKGFYPSDIAVEWESNGQPENNYKTTPPVLVSDGSFTLYSKLTVDKSRWQQGNVFSCSVMHEALHNHYTQKSLSLSPG
heavy: B1 heavy
light: B1 light
With B3 the Kd [1] was 640 nM, the koff [1] was 0.19 s⁻¹ and the kon [1] was 300000 M⁻¹ s⁻¹. The Kd [2] was 280 nM, the koff [2] was 0.072 s⁻¹ and the kon [2] was 260000 M⁻¹ s⁻¹. The Kd (Cyno FcγRIIIA) was 160 nM, the koff (Cyno FcγRIIIA) was 0.11 s⁻¹ and the kon (Cyno FcγRIIIA) was 720000 M⁻¹ s⁻¹. It also gave a Kd (Human CEACAM5 (E398)) of 17 nM, a kon (Human CEACAM5 (E398)) of 100000 M⁻¹ s⁻¹ and a Kd (CEACAM5 N-A1-B1-His) of 1.8 nM. For the same binder, the kon (CEACAM5 N-A1-B1-His) was 350000 M⁻¹ s⁻¹ and the binding result [3] was “no binding (tested: 1600 nM)”.

B4: AB0264 F3' CEACAM5 TriNKET (bispecific antibody, human IgG1, kappa)
chain: B3 chain with S210P
heavy: B1 heavy
light: B1 light
In the case of B4, the Kd (CEACAM5 N-A1-B1-His) is reported as 1.1 nM, the kon (CEACAM5 N-A1-B1-His) is reported as 410000 M⁻¹ s⁻¹ and the binding result [3] is reported as “no binding (tested: 1600 nM)”.
